Molecular target: endogenous DDX3X from HuH-7 cells (human (endogenous in HuH-7)) (UniProt O00571)
UniProt O00571, sequence (O00571 whole entry): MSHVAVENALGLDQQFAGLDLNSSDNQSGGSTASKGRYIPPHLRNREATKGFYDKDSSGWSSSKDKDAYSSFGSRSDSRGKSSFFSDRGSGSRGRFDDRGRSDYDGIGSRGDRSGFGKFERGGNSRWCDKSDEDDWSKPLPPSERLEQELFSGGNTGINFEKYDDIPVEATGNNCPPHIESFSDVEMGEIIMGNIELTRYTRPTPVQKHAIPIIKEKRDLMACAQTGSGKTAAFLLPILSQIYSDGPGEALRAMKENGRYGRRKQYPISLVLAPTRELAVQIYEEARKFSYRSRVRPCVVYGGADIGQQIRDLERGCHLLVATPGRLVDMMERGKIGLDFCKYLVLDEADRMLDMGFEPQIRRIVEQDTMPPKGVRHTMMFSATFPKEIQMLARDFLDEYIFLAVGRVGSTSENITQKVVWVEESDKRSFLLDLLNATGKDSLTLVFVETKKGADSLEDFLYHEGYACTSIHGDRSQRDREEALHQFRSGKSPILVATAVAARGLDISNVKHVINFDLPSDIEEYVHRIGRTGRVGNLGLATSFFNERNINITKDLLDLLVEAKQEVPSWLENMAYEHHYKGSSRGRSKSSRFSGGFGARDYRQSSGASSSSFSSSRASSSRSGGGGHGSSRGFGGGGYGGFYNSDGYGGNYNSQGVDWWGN

“GFP fusion to HCV core protein residues 16–36 (peptide)” showed a level of HCV replicon NNeo/C-5B RNA in HuH-7 cells 48 h after transient transfection (Northern blot) of 50%.

Reference: article PMC2941470
